Measurements reported in the RNAGym collection of RNA variant scans (doi:10.1093/molbev/msab373).

B1: Azoarcus group I ribozyme (parent)
chain: GUGCCUUGCGCCGGGAAACCACGCAAGGGAUGGUGUCAAAUUCGGCGAAACCUAAGCGCCCGCCCGGGCGUAUGGCAACGCCGAGCCAAGCUUCGGCGCCUGCGCCGAUGAAGGUGUAGAGACUAGACGGCACCCACCUAAGGCAAACGCUAUGGUGAAGGCAUAGUCCAGGGAGUGGCGAAAGUCACACAAACCGG

Variants of: B1
Experiment: reverse-splicing fitness (ratio to wild type); higher = more active; in vitro selection; Mg2+ level not given
In short: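 An in vitro group I ribozyme library with randomized positions was T7-transcribed and gel-purified. In triplicate, 10 pmol RNA in EPPS pH 7.5 was reacted with 50 pmoles of a 30-nt RNA substrate for 1 h at 37 °C across several added MgCl2 levels (1–48 mM), then stopped with EDTA. Products were reverse transcribed from a substrate-complementary primer, PCR-amplified and sequenced (HiSeq 4000). Fitness is a variant's read proportion after selection over that before, normalised to wild type.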

Variant | reverse-splicing fitness
C82G A111U A145C C150A C169A U176C | 0.00716
C82G A111U A145C C150A C169A U176A | 0.0125
C82G A111U A145C C150A C169A U176G | 0.0075
C82G A111U A145U C150A C169U U176A | 0.0141
C82G A111U A145U C150A C169U U176C | 0.0129
C82G A111U A145U C150A C169U U176G | 0.00579
C82G A111U A145C C150G C169G U176G | 0.00602
C82G A111U A145C C150G C169G U176A | 0.00943
C82G A111U A145C C150G C169G U176C | 0.00772
C82G A111U A145U C150G | 0.0323
C82G A111U A145U C150A | 0.0284
C82G A111U A145U C150U | 0.239
C82G A111U A145C C150G C169A | 0.00892
C82G A111U A145C C150G C169U | 0.00915
C82G A111U A145C C150G C169G | 0.00784
C82G A111U C150G C169A | 0.0104
C82G A111U C150G C169G | 0.00744
C82G A111U C150G C169U | 0.0102
C82G A111U A120U C150U C169U U176A | 0.0052
C82G A111U A120U C150U C169U U176G | 0.00215
C82G A111U A120U C150U C169U U176C | 0.00402

Variant | reverse-splicing fitness
C82G A111U A120U A145U C150U C169U U176A | 0.00325
C82G A111U A120U A145U C150U C169U U176G | 0.0023
C82G A111U A120U A145U C150U C169U U176C | 0.00369
C82G A111U A120U C150U U176A | 0.00931
C82G A111U A120U C150U U176C | 0.0123
C82G A111U A120U C150U U176G | 0.00391
C82G A111U A145U C150U C169U U176C | 0.0136
C82G A111U A145U C150U C169U U176A | 0.0142
C82G A111U A145U C150U C169U U176G | 0.00609
C82G A111U A145U C150A C169G | 0.00845
C82G A111U A145U C150A C169A | 0.0096
C82G A111U A145U C150A C169U | 0.00955
C82G A111U A145C C150U C169U U176A | 0.0136
C82G A111U A145C C150U C169U U176C | 0.0098
C82G A111U A145C C150U C169U U176G | 0.00613
C82G A111U A120U A145U C150G C169U U176G | 0.00286
C82G A111U A120U A145U C150G C169U U176A | 0.00286
C82G A111U A120U A145U C150G C169U U176C | 0.0029
C82G A111U A120U C150U C169A U176G | 0.00241
C82G A111U A120U C150U C169A U176C | 0.00328
C82G A111U A120U C150U C169A U176A | 0.00512

Variant | reverse-splicing fitness
C82G A111U A120U C150G | 0.00761
C82G A111U A120U C150A | 0.00965
C82G A111U A120U C150U | 0.0256
C82G A111U A120U C150A C169G U176G | 0.00223
C82G A111U A120U C150A C169G U176A | 0.00827
C82G A111U A120U C150A C169G U176C | 0.00406
C82G A111U A145U C150G C169A U176C | 0.0124
C82G A111U A145U C150G C169A U176G | 0.00706
C82G A111U A145U C150G C169A U176A | 0.0117
C82G A111U A145U C169G U176A | 0.0122
C82G A111U A145U C169G U176C | 0.0128
C82G A111U A145U C169G U176G | 0.00618
C82G A111U A145G C150A C169A U176G | 0.00721
C82G A111U A145G C150A C169A U176C | 0.0216
C82G A111U A145G C150A C169A U176A | 0.0183
C82G A111U A145C C169U U176A | 0.014
C82G A111U A145C C169U U176C | 0.0119
C82G A111U A145C C169U U176G | 0.00474
C82G A111U A145G C150G C169G U176G | 0.0062
C82G A111U A145G C150G C169G U176A | 0.0107
C82G A111U A145G C150G C169G U176C | 0.0129

Variant | reverse-splicing fitness
C82G A111U A145G C169G U176A | 0.0187
C82G A111U A145G C169G U176G | 0.00557
C82G A111U A145G C169G U176C | 0.0258
C82G A111U C150U | 0.192
C82G A111U C150G | 0.0227
C82G A111U C150A | 0.0323
C82G A111U A120U A145U C150U | 0.0274
C82G A111U C150A C169G U176C | 0.0229
C82G A111U C150A C169G U176G | 0.0075
C82G A111U C150A C169G U176A | 0.021
C82G A111U A145U C150A U176G | 0.0115
C82G A111U A145U C150A U176A | 0.0235
C82G A111U A145U C150A U176C | 0.0315
C82G A111U A145G C150A U176C | 0.0447
C82G A111U A145G C150A U176G | 0.0141
C82G A111U A145G C150A U176A | 0.0322
C82G A111U A145G C150G C169U | 0.00972
C82G A111U A145G C150G C169G | 0.00715
C82G A111U A145G C150G C169A | 0.00977
C82G A111U C150G C169U U176G | 0.00728
